From PMC3902040 come the findings set out here.

The target of the test is Factor H (CFH) (human) (UniProt P08603). Put plainly: SPR. In general terms: SPR reads the build-up and loss of mass on a sensor chip optically.
UniProt P08603, sequence (P08603 19-1231): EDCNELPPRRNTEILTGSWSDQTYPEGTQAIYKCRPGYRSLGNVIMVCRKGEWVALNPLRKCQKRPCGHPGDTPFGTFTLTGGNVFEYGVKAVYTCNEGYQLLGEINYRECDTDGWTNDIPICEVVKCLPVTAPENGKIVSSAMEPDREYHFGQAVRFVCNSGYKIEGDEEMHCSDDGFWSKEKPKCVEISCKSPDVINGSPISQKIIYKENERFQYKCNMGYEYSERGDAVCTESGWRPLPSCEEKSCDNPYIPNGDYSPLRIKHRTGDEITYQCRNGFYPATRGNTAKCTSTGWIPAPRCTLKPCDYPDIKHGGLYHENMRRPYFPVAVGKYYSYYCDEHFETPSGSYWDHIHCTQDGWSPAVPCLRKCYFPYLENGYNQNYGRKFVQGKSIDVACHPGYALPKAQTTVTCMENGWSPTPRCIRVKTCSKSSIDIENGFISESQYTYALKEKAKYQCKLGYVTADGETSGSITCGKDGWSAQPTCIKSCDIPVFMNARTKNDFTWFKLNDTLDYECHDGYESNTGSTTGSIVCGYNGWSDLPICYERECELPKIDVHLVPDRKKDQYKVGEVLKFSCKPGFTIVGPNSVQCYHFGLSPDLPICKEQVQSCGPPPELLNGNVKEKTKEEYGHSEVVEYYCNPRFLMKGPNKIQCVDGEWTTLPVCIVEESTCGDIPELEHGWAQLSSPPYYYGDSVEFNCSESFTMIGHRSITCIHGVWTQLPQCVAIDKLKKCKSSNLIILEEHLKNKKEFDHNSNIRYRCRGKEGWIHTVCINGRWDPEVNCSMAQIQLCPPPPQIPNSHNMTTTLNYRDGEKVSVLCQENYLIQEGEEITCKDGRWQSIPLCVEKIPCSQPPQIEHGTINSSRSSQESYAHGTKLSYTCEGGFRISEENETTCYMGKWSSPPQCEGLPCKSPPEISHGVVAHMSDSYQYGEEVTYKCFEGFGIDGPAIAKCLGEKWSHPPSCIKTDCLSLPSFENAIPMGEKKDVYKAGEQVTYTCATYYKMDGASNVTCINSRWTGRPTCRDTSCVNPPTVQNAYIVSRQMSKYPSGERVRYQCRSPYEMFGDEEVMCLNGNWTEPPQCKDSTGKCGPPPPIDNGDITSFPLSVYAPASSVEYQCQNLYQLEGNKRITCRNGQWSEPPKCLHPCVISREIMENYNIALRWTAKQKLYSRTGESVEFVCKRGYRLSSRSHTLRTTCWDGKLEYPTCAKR

“155Q C3 protein (C3 K155Q variant, rs147859257), methylamine-treated C3 (MA) (natural protein)”: the reduced binding against 155K C3 (percent) was found to be 60%.
